Two molecules from patent US6613506B1, “Compositions and methods for inhibiting human immunodeficiency virus infection by down-regulating human cellular genes” (Subsidiary No. 3, Inc., priority 2000, dated 2003) can be followed below.

Data set [1] has as its system latent HIV-1 provirus in OM10.1 cells. The experiment in a line: Selection of GSEs in OM10.1 cells (TNF-α induction of latent provirus, CD4+ sorting). The data set is classed as cell-based. How it is done:
The libraries prepared from HL-60 cells according to the method of Section A of this Example, were transfected into the packaging cell line, PA317 (ATCC CRL #9078), and converted into retrovirus for infection of OM10.1 cells. Libraries in pLNCX vector were co-cultured and selected with G418. Libraries in pLNGFRM vector were transduced by spinoculation (centrifugation of target cells at 1200×g for 90 min. in the presence of filtered retroviral supernatant; Dunn et al., 1999, Gene Therapy 6: 133-137) and selected by FACS sorting of the NGFR^+ population. After selection, the OM10.1 cells harboring the entire RFE library were induced with 10 U/mL of TNF-α at 37EC, and 24 hours later, were stained with an antibody and sorted for CD4 expression. Genomic DNA from the CD4^+ cells was purified and used for PCR amplification of inserts with the vector-derived primers. […]
GSEs derived from cDNAs representing expressed human cellular genes were identified and isolated from a RFE library made from HL-60 cells using HIV provirus activation in OM10.1 cells as a read-out. […] When the infected cells were treated with TNF-α a small number of residual CD4^+ cells were detected by an anti-CD4 antibody and sorted by FACS. The GSEs contained in these cells were recovered by PCR amplification and their nucleotide sequences determined.

The test system of a further data set is HIV-1SF2. The experiment in a line: Protection of GSE-transduced CEM-ss cells from HIV-1SF2 infection (intracellular p24). The data set is classed as cell-based. As to conditions: HIV-1SF2 at TCID50 of 1000, versus vector (LNGFRM) control. The source says:
FIG. 2 illustrates the percentage of intracellular p24^+ CEM-ss cells containing the CF-315 sequence (SEQ ID NO:1) after infection with HIV-1SF2 at a TCID50 of 1000. CEM-ss cells (10^6) containing the C-315 construct or control vector DNA (denoted as LNGFRM) were harvested on the indicated days post infection, stained with FITC-conjugated anti-p24 monoclonal antibody and analyzed by flow cytometry. Mock infected cells, -⋄-; LNGFRM vector-infected cells, -[…]-; and C-315 infected cells, -Δ-.
FIG. 3 illustrates the percentage of intracellular p24^+ CEM-ss cells containing various GSEs: CF-004 (SEQ ID NO:7), CF-025 (SEQ ID NO:5), CF-113 (SEQ ID NO:8) and CF-204 (SEQ ID NO:9) after infection with HIV-1SF2 at a TCID50 of 1000. Controls include mock-infected, vector (LNGFRM)-infected and HIV-infected CEM-ss cells.
FIG. 4 illustrates the percentage of intracellular p24^+ CEM-ss cells containing CF-001 (SEQ ID NO:10) after infection with HIV-1SF2 at a TCID50 of 1000. Controls include mock-infected and vector (LNGFRM)-infected cells. […]
In order to determine p24 expression in HIV-infected cells, the cells were first washed twice with Assay Buffer. […] The cells were then washed twice with Wash Buffer and analyzed by flow cytometry. […]

The test system of another data set is HIV. The experiment in a line: Selection of GSEs from RFE libraries using OM10.1 and CEM-ss cells (strategy not stated per GSE). The data set is classed as cell-based, HIV-1. As to conditions: GSEs matching NADH dehydrogenase subunit genes. As to the method:
The libraries prepared from HL-60 cells according to the method of Section A of this Example, were transfected into the packaging cell line, PA317 (ATCC CRL #9078), and converted into retrovirus for infection of OM10.1 cells. Libraries in pLNCX vector were co-cultured and selected with G418. Libraries in pLNGFRM vector were transduced by spinoculation (centrifugation of target cells at 1200×g for 90 min. in the presence of filtered retroviral supernatant; Dunn et al., 1999, Gene Therapy 6: 133-137) and selected by FACS sorting of the NGFR^+ population. After selection, the OM10.1 cells harboring the entire RFE library were induced with 10 U/mL of TNF-α at 37EC, and 24 hours later, were stained with an antibody and sorted for CD4 expression. Genomic DNA from the CD4^+ cells was purified and used for PCR amplification of inserts with the vector-derived primers. The amplified mixture was digested with EcoRI and BamHI and cloned back into the retroviral vector. The selection was repeated for additional rounds.
Additionally, a normalized RFE library made from HeLa cells was transferred into CEM-ss cells and the neo resistant population was infected with TCID50 of 3000/10^6 cells of HIV-1IIIB. This RFE library was represented by 50×10^6 independent recombinant clones. Four and seven days after infection, a purified anti-CD4 monoclonal antibody, L77 (available from Becton Dickinson), was added at 5 Φg/mL to prevent syncytia formation. Syncytia formation is thought to be prevented by blocking the interaction between gp120 expressed on the surface of an infected cell and CD4 on the surface of an uninfected cell. […] At 10-12 days after infection, CD4^+, p24^− cell population representing uninfected cells were sorted. Genomic DNA from the CD4^+, p24^− cells was purified and used for PCR amplification of inserts with the vector-derived primers. The amplified mixture was digested with EcoRI and BamHI and cloned back into the retroviral vector. The selection was repeated for additional rounds.
One strategy selected for GSEs which suppressed productive infection of cells by HIV. The second strategy selected for GSEs which suppressed induction of the latent provirus in OM10.1 cells. When OM10.1 cells were treated with TNF-α and stained with an antibody specific for the cell surface molecule CD4, a rapid loss of CD4 expression was observed (FIG. 1). In contrast, the vast majority of the uninduced OM10.1 cells retained CD4 expression. It is believed that activation of the latent virus in OM10.1 cells by TNF-α leads to the production of viral protein gp120, which binds to cytoplasmic CD4, thereby preventing its translocation to the cell surface. A diminution of CD4^+ OM10.1 cells also correlates with an increased production of viral protein p24 in the cells following TNF-α induction.
GSEs derived from cDNAs representing expressed human cellular genes were identified and isolated from a RFE library made from HL-60 cells using HIV provirus activation in OM10.1 cells as a read-out. Following transfection of the entire library into a packaging cell line, retrovirus carrying the library was used to infect OM10.1 cells by co-cultivation or spinoculation, and NGFR selection was performed to ensure the retention of the viral vector. When the infected cells were treated with TNF-α a small number of residual CD4^+ cells were detected by an anti-CD4 antibody and sorted by FACS. The GSEs contained in these cells were recovered by PCR amplification and their nucleotide sequences determined.
A total of twenty GSEs were isolated by the two aforementioned selection strategies using OM10.1 and CEM-ss cells. […] CF-315 was further shown to protect uninfected human T cells from a productive HIV-1 infection (FIG. 2). In this experiment, the retroviral vector, pLNGFRM, containing the CF-315 nucleic acid molecule was transferred into CEM-ss cells followed by NGFR selection. Vector containing plasmid DNA (denoted LNGFRM) was used as negative control. […]

B1: CF-061: GSE, SEQ ID NO:19; portion of an unknown human cellular gene (nucleic acid, listed as Homo sapiens)
DNA: ACACACAGACACACAGACACAGAGAGACACACAGACACACACACAGAGATACACAGAGACACAGACACAGAAACACTCTGAGAGACACACACACAGAGACACACAGACACACAGACACAGAGAGACACACAGACACACACACACAGAGATACACAGAGACACAGACACAGAAA
Regarding B1, in data set [1], the “selection of the GSE” value is “selected in OM10.1 cells”.

B2: CF-315: GSE, SEQ ID NO:1, antisense; NADH dehydrogenase ND6 subunit gene (nucleic acid, listed as Homo sapiens)
antisense: AGATCCTATTGGTGCGTGGGCTTTGTATGATTATGGGCGTAGATTAGTAGTAGTTACTGGTTGAACATTGTTTGTTGGTGTATATATTGTAATTGGGATTGCTCGGGGGAATAGGTTATGTGATTAGGAGTAGGG
B2: the “inhibition of productive HIV infection (intracellular p24+ cells)” value in the data set with HIV-1SF2 is reported as “inhibited infection of human T cells by HIV-1SF2”. Also, the “HIV-suppressive activity of the GSE and active orientation” value with HIV is recorded as “suppresses HIV replication as an antisense molecule”.
